What all share (assay): purified protein
Settings in all cases: PLP-reconstituted holo-enzyme, 200 µM alpha-ketoglutarate, 500 µM NAD+, 5 U GDH, 10 mM Tris-HCl pH 8.0

Substrate in data set [1]: NCCC[C@H](N)C(=O)O
Substrate in data set [2]: CC(=O)N[C@@H](CCCN)C(=O)O
Type of data set: biochemical, Escherichia coli.

Substrate in data set [3]: NCCC[C@H](NC(=O)CCC(=O)O)C(=O)O
It is filed as biochemical, Escherichia coli.

B1: AstC (Escherichia coli K-12) (protein)
chain: MSQPITRENFDEWMIPVYAPAPFIPVRGEGSRLWDQQGKEYIDFAGGIAVNALGHAHPELREALNEQASKFWHTGNGYTNEPVLRLAKKLIDATFADRVFFCNSGAEANEAALKLARKFAHDRYGSHKSGIVAFKNAFHGRTLFTVSAGGQPAYSQDFAPLPADIRHAAYNDINSASALIDDSTCAVIVEPIQGEGGVVPASNAFLQGLRELCNRHNALLIFDEVQTGVGRTGELYAYMHYGVTPDLLTTAKALGGGFPVGALLATEECARVMTVGTHGTTYGGNPLASAVAGKVLELINTPEMLNGVKQRHDWFVERLNTINHRYGLFSEVRGLGLLIGCVLNADYAGQAKQISQEAAKAGVMVLIAGGNVVRFAPALNVSEEEVTTGLDRFAAACEHFVSRGSS
notes: full-length, native untagged, no plasmid; purified from E. coli BL21(DE3) by Ni-NTA and size exclusion as apo-protein, reconstituted with PLP; about 406 residues; dimer
As a reminder, the Km is the concentration of substrate that gives half-maximal velocity. What is called kcat is the maximal rate divided by the concentration of active sites. A word on the kcat/Km: it is the turnover number divided by the Michaelis constant. Turning to B1, in data set [1], the Km is listed as 4,391 µM, the kcat was determined as 3.5 s⁻¹ and the kcat/Km was determined as 797 M⁻¹ s⁻¹. Also, in data set [2], the Km came to 338 µM, the kcat was determined as 4.7 s⁻¹ and the kcat/Km came out at 13900 M⁻¹ s⁻¹. In addition, in data set [3], the Km is on record as 284 µM, the kcat is 3 s⁻¹ and the kcat/Km was determined as 10600 M⁻¹ s⁻¹.

The values are drawn from PMC3590144, “Determination of the Structure of the Catabolic N-Succinylornithine Transaminase (AstC) from Escherichia coli” (PLoS ONE, 2013).
